The source of these data is patent US20220064276A1 (SCHOLAR ROCK, published 2022).

The chains are these.
B1: SR-AB40 (antibody, IgG1, V domains shown)
VH: QVQLVESGGGVVQPGRSLRLSCAASGFTFRSYVMHWVRQAPGKGLEWVAVISHEGSLKYYADSVKGRFTISRDNSKNTLYLQMNSLRAEDTAVYYCARPRIAARRGGFGYWGQGTLVTVSS
VL: NFMLTQPHSVSESPGKTVTISCTRSSGNIDNNYVQWYQQRPGSSPTTVIYEDNQRPSGVPDRFSGSIDSSSNSASLTISGLKTEDEADYYCQSYDYSNQGVVFGGGTKLTVL
notes: Cycle 3, lineage SR-AB23
B2: SR-AB31 (antibody, IgG1, V domains shown)
VH: B1 VH with R98V
VL: B1 VL with Y96F, S97N
notes: Cycle 3, lineage SR-AB22
B3: SR-AB45 (antibody, IgG1, V domains shown)
VH: B1 VH
VL: B1 VL with N28A, N31D, N53F, Y96D, S97D, N98L
notes: Cycle 3, lineage SR-AB23
B4: SR-AB34 (antibody, IgG1, V domains shown)
VH: B1 VH with R98V
VL: B1 VL with S97D, N98A
notes: Cycle 3, lineage SR-AB22
B5: SR-AB42 (antibody, IgG1, V domains shown)
VH: B1 VH
VL: B1 VL with S97D, N98T
notes: Cycle 3, lineage SR-AB23
B6: SR-AB39 (antibody, IgG1, V domains shown)
VH: B1 VH with R98V
VL: B1 VL with N28L, N31D, N53A, Y96H, S97D, N98E
notes: Cycle 3, lineage SR-AB22
B7: SR-AB37 (antibody, IgG1, V domains shown)
VH: B1 VH with R98V
VL: B1 VL with N28L, N31D, Y96S, S97D, N98L, G100R
notes: Cycle 3, lineage SR-AB22
B8: SR-AB38 (antibody, IgG1, V domains shown)
VH: B1 VH with R98V
VL: B1 VL with N28S, N53F, Q54I, Y96D, S97D, N98L
notes: Cycle 3, lineage SR-AB22
B9: SR-AB41 (antibody, IgG1, V domains shown)
VH: B1 VH
VL: B1 VL with S97D, G100A
notes: Cycle 3, lineage SR-AB23
B10: SR-AB44 (antibody, IgG1, V domains shown)
VH: B1 VH
VL: B1 VL with S26H, N31D, Q54V, Y96S, S97D, G100L
notes: Cycle 3, lineage SR-AB23

Broadly, the Kd is the equilibrium constant for the complex coming apart. Low values mean tighter binding, high ones weaker binding. One may read the koff as a measure of how fast the partners let go of each other. As a reminder, the kon is the rate constant with which the complex forms. Lower therefore signals slower complex formation.

Residue numbers refer to the chain shown, from its start. Where “and” joins values, the source holds several entries; their conditions need not be identical. Equal values may be shown once.

T5 sequence (Q14766 347-1721 limits assumed, chain 1 of 2): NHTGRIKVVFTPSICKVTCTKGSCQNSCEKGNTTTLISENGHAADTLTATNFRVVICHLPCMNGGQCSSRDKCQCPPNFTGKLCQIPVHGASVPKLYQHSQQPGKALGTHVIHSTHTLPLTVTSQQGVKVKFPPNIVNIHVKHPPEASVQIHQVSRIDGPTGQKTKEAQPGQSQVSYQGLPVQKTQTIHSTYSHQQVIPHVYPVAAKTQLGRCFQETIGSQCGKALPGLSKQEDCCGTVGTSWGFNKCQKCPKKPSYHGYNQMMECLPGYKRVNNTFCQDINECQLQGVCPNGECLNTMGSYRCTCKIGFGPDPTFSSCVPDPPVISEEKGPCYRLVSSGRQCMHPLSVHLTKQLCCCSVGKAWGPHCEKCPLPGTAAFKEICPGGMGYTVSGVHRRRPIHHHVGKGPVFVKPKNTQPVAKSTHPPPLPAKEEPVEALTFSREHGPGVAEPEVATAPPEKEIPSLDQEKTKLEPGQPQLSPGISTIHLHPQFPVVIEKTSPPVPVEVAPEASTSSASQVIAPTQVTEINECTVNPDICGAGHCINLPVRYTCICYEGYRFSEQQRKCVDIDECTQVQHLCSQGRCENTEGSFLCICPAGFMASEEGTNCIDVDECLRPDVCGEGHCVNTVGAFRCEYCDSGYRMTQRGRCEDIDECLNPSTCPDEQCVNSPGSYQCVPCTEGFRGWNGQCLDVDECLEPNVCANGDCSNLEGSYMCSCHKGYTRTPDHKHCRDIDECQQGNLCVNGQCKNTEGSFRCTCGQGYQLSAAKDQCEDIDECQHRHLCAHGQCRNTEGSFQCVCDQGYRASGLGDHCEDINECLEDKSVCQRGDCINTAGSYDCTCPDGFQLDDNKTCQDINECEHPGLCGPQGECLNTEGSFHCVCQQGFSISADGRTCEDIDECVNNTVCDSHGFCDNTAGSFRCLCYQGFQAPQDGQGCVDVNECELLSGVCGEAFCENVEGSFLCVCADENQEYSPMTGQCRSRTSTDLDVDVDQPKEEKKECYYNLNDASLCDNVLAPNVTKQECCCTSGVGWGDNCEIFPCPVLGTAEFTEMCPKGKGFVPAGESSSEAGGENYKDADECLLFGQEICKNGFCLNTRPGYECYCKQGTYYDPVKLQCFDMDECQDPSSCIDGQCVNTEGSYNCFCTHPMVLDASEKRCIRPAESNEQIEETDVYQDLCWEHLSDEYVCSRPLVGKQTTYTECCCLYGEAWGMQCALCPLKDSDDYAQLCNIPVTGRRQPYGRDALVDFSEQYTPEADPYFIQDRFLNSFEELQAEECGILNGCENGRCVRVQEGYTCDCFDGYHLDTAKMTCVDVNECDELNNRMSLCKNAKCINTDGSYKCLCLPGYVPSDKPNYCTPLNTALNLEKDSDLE
T5 sequence (P01137 30-390 limits assumed, chain 2 of 2): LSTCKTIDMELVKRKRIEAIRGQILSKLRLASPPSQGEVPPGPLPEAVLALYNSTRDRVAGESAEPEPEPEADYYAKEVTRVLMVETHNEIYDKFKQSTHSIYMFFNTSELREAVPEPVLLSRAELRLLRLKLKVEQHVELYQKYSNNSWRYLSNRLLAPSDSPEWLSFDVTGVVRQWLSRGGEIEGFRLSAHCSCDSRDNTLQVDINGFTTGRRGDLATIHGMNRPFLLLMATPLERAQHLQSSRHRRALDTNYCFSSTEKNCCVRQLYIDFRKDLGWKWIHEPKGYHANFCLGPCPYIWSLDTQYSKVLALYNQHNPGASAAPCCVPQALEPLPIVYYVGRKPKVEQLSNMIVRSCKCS
T2 sequence (Q61810 other isoform, or with tags, fused parts or gaps limits assumed, chain 1 of 2): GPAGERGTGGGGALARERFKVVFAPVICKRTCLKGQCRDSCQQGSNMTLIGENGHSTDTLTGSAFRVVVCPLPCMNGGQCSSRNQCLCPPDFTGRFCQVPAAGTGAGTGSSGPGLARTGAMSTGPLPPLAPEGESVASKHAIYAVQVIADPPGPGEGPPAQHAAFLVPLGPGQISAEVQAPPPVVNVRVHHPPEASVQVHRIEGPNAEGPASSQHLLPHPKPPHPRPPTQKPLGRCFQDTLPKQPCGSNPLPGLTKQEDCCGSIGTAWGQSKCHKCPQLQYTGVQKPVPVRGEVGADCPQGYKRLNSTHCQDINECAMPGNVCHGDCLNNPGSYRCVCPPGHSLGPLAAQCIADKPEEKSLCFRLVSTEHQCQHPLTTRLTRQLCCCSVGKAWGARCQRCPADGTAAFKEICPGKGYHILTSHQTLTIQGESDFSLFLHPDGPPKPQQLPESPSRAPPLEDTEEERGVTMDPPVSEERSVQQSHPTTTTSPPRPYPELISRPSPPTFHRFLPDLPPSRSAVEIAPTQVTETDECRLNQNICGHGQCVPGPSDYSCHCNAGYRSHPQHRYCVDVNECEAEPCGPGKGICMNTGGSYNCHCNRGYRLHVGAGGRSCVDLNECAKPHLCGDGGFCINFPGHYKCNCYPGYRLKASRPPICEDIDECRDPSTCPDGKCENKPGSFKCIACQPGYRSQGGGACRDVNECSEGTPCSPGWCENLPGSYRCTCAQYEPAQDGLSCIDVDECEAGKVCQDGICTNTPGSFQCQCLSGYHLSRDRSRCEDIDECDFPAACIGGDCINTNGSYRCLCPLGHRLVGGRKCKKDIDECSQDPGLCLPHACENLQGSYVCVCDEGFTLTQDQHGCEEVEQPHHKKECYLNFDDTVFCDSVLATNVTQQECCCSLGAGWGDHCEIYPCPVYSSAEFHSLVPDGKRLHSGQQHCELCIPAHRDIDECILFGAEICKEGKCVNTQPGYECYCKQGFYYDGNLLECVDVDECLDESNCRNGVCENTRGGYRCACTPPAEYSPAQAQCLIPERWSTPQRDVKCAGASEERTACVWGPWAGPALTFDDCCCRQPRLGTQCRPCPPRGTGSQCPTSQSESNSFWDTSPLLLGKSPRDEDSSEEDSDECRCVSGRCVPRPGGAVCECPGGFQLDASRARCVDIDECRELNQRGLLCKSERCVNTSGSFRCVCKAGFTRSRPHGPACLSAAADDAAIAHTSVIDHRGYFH
T2 sequence (P04202 30-390 limits assumed, chain 2 of 2): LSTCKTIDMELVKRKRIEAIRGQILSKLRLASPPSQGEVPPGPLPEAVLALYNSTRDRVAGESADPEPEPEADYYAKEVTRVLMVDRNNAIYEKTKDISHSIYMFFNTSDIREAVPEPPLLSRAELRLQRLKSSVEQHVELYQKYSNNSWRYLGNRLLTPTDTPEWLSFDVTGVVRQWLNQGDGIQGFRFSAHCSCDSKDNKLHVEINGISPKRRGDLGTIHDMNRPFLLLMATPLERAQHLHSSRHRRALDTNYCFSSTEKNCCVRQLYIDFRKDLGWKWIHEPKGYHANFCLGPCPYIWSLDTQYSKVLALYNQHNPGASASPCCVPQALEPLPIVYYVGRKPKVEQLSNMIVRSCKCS

In the first test the target is T1, human GARP-proTGFβ1 complex (human, UniProt Q14392 18-627; P01137 30-390, limits assumed).
T1 construct: Exemplary entries; also called Hu GARP-proTGFβ1; huGARP proTGFb1
T1 sequence (Q14392 18-627 limits assumed, chain 1 of 2): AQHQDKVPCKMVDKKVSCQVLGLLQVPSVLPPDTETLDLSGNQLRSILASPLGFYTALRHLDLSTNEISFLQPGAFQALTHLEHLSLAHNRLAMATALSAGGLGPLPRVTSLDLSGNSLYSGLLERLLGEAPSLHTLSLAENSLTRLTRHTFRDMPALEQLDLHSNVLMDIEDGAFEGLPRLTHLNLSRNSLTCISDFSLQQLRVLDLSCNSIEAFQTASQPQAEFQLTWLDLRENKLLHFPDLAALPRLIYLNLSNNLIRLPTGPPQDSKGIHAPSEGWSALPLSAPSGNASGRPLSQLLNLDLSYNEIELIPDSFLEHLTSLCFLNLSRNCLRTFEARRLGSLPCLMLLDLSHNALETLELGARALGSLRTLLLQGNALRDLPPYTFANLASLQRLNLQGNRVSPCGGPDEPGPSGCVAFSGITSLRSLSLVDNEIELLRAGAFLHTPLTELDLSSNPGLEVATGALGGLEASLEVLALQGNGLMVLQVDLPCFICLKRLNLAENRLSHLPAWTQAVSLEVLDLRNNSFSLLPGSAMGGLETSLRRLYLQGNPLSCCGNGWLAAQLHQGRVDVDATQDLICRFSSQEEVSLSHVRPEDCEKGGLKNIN
T1 sequence (P01137 30-390 limits assumed, chain 2 of 2): as the sequence (P01137 30-390 limits assumed, chain 2 of 2) above
As to the kind of experiment: Octet (bio-layer interferometry), response at 200 nM antigen; 0.1 nm cutoff designates meaningful binding. The method, then:
This experiment was performed at 200, 100, 50, and 25 nM human GARP proTGFb1 and human LTBP1 proTGFbl. […] Surface plasmon resonance (SPR)-based assays
A general note: BLI is a label-free optical method that tracks binding on a fibre tip over time.
With B1, the binding result was “no binding (tested: 200 nM)”.

A further test concerns the target T2, mouse LTBP3-proTGFβ1 complex (mouse, UniProt Q61810 41-1245; P04202 30-390, limits assumed).
T2 construct: Exemplary entries; also called Mo LTBP3-proTGFβ1; Murine LTBP3 proTGFb1
As to the kind of experiment: Octet BLI, IgG captured. The method, then: (§1) Binding affinities of the optimized antibodies were measured by Octet against human LTBP1-proTGFβ1, human LTBP3-proTGFβ1, mouse LTBP1-proTGFβ1, mouse LTBP3-proTGFβ1, and GARP-proTGFβ1 complexes, essentially as described in Example 6. […] The antigens were allowed to associate for 3 minutes followed by a 5-minute dissociation. Kinetics buffer (ForteBio®) was used throughout the experiment, and KD was determined using a 1:1 fitting model for each antibody antigen pair.
B2 yielded a Kd of 0.589 nM.
As for B1, the Kd stood at 1.16 nM.
On the same count and under the same terms, as for B3, the figure is 0.269 nM; as for B4, 0.45 nM; as for B5, 1.05 nM.
Same read-out and setting: as for B6, the figure is 0.342 nM; as for B7, 0.325 nM.
In turn, B8 showed an equilibrium dissociation constant (Kd) of 0.331 nM. The Kd values of the last two molecules are within 1.5-fold of each other.
The molecule B9 gave an equilibrium dissociation constant (Kd) of 0.717 nM. Compared with the last molecule, the Kd is about 2.2-fold higher.
The same measure, in the same setting: as for B10, the figure is 0.407 nM.

For another test, the target named is T3, mouse LTBP1-proTGFβ1 complex (mouse, UniProt Q8CG19 339-1712; P04202 30-390).
T3 construct: Exemplary entries; In the cell assays expressed from mouse LTBP1S and mouse proTGFb1 plasmids in LN229 cells; also called Mo LTBP1-proTGFβ1; MuLTBP1-ProTGFb1
Description: Octet BLI, IgG captured. The protocol:
as §1
B2: binding was characterised by a dissociation constant (Kd) of 0.682 nM.
For B1, the Kd was found to be 1.08 nM.
Molecule B3 yielded a dissociation constant Kd of 0.193 nM.
In turn, B4 gave a Kd of 0.417 nM.
The same measure, in the same setting: as for B5, the figure is 0.359 nM; as for B6, 0.232 nM.
Same read-out and setting: as for B7, the figure is 0.384 nM.
The molecule B8 yielded a Kd of 0.391 nM.
The same measure, in the same setting: as for B9, the figure is 0.404 nM; as for B10, 0.21 nM.

The target of another test is T4, human LTBP3-proTGFβ1 complex (human, UniProt Q9NS15 44-1303; P01137 30-390, limits assumed).
T4 construct: Exemplary entries; also called Hu LTBP3-proTGFβ1; huLTBP3 proTGFb1
Description: Octet BLI, IgG captured. The protocol: as §1
In the case of B2, the equilibrium dissociation constant (Kd) came to 0.221 nM, the off-rate constant (koff) was 6.81e-05 s⁻¹ and the association rate constant (kon) was 308000 M⁻¹ s⁻¹.
B1 yielded a dissociation constant Kd of 0.333 nM, an off-rate (koff) of 6.07e-05 s⁻¹ and a kon of 182000 M⁻¹ s⁻¹.
The corresponding values for B3 are 0.122 nM, 6e-05 s⁻¹ and 491000 M⁻¹ s⁻¹.
Regarding B4, the equilibrium dissociation constant (Kd) is 0.179 nM, the dissociation rate constant (koff) was found to be 6.68e-05 s⁻¹ and the on-rate constant (kon) came to 372000 M⁻¹ s⁻¹.
The matching figures for B5: 0.259 nM, 6e-05 s⁻¹ and 232000 M⁻¹ s⁻¹.
The corresponding values for B6 are 0.136 nM, 6e-05 s⁻¹ and 441000 M⁻¹ s⁻¹.
The matching figures for B7: 0.139 nM, 7.58e-05 s⁻¹ and 545000 M⁻¹ s⁻¹.
In turn, B8 gave a dissociation constant (Kd) of 0.145 nM, an off-rate constant (koff) of 7.26e-05 s⁻¹ and a kon of 502000 M⁻¹ s⁻¹.
The corresponding values for B9 are 0.235 nM, 6e-05 s⁻¹ and 255000 M⁻¹ s⁻¹.
Molecule B10 returned a dissociation constant Kd of 0.146 nM, an off-rate (koff) of 6e-05 s⁻¹ and an on-rate (kon) of 410000 M⁻¹ s⁻¹.

The next test has as its target T1, human GARP-proTGFβ1 complex. Description: Octet BLI, IgG captured. The method, then: as §1
B2 returned a dissociation constant (Kd) of 11.2 nM.
Still for that read-out and setting: as for B3, the figure is 195 nM; as for B4, 73.5 nM; as for B6, 389 nM.
Same read-out and setting: as for B7, the figure is 36.1 nM; as for B8, 8.42 nM; as for B9, 764 nM.
On to B10, for which binding was characterised by a dissociation constant (Kd) of 212 nM.

Another test addresses T5, human LTBP1-proTGFβ1 complex (human, UniProt Q14766 347-1721; P01137 30-390).
T5 construct: Large latent complex: one presenting molecule disulfide-linked to a proTGFβ1 dimer; also called Hu LTBP1-proTGFβ1; huLTBP1 proTGFβ1
As to the kind of experiment: Octet BLI, IgG captured. The method, then: as §1
As to B2, the dissociation constant Kd was determined as 0.412 nM, the off-rate constant (koff) came to 9.89e-05 s⁻¹ and the kon was found to be 240000 M⁻¹ s⁻¹.
Molecule B1 showed a dissociation constant Kd of 0.401 nM, a koff of 6e-05 s⁻¹ and a kon of 150000 M⁻¹ s⁻¹.
The matching figures for B3: 0.193 nM, 6e-05 s⁻¹ and 310000 M⁻¹ s⁻¹.
The molecule B4 returned a dissociation constant Kd of 0.231 nM, an off-rate (koff) of 6e-05 s⁻¹ and a kon of 259000 M⁻¹ s⁻¹.
The matching figures for B5: 0.389 nM, 6e-05 s⁻¹ and 154000 M⁻¹ s⁻¹.
Molecule B6 registered a dissociation constant Kd of 0.205 nM, a koff of 6e-05 s⁻¹ and an on-rate (kon) of 292000 M⁻¹ s⁻¹.
As to B7, the Kd stood at 0.328 nM, the koff was 0.000118 s⁻¹ and the on-rate constant (kon) is 360000 M⁻¹ s⁻¹.
The matching figures for B8: 0.357 nM, 0.000117 s⁻¹ and 327000 M⁻¹ s⁻¹.
B9 had a Kd of 0.296 nM, a koff of 6e-05 s⁻¹ and an on-rate constant (kon) of 203000 M⁻¹ s⁻¹.
B10 displayed a Kd of 0.214 nM, a koff of 6e-05 s⁻¹ and a kon of 280000 M⁻¹ s⁻¹.

The target in a further test is T3, mouse LTBP1-proTGFβ1 complex. As to the kind of experiment: cell-based or functional assay.
As for B1, the “IC50, mLTBP1 assay (CAGA12 luciferase)” value is 0.333 nM.
With B3, the “IC50, mLTBP1 assay (CAGA12 luciferase)” value came out at 0.264 nM.
As to B5, the “IC50, mLTBP1 assay (CAGA12 luciferase)” value is 0.271 nM.
For B9, the “IC50, mLTBP1 assay (CAGA12 luciferase)” value was found to be 0.409 nM.
Regarding B10, the “IC50, mLTBP1 assay (CAGA12 luciferase)” value is 0.3 nM.

For a further test, the target named is T6, LTBP-proTGFβ1: transfected human proTGFβ1 presented by endogenous LTBP1/3 of LN229 cells (human). As to the kind of experiment: cell-based or functional assay.
T6 sequence (P01137 30-390): as the sequence (P01137 30-390 limits assumed, chain 2 of 2) above
Take B1: the “IC50, endogenous hLTBP assay (CAGA12 luciferase)” value (“IC50, endogenous hLTBP assay” below) was 2.1 nM.
The same measure, in the same setting: as for B3, the figure is 2.25 nM; as for B5, 1.43 nM; as for B9, 1.54 nM.
Take B10: the “IC50, endogenous hLTBP assay” value stood at 1.51 nM.

The target of a further test is T1, human GARP-proTGFβ1 complex. Description: Octet BLI, Table 10 (repeats Table 9). The protocol:
as §1
Table 9 presents the binding profile and affinity data for the indicated LTBP complex-specific antibodies (IgG1-agly) identified from the light chain optimization cycle 3, determined by Octet.
In turn, B2 showed a Kd of 11.2 nM. That is a double-digit nanomolar value.
The same measure, in the same setting: as for B3, the figure is 195 nM; as for B4, 73.5 nM; as for B6, 389 nM.
The same measure, in the same setting: as for B7, the figure is 36.1 nM; as for B8, 8.42 nM; as for B9, 764 nM.
B10 came in with a Kd of 212 nM. Compared with the last molecule, the Kd is about 3.6-fold lower.

The target in another test is T3, mouse LTBP1-proTGFβ1 complex. As to the kind of experiment: cell-based or functional assay. This is another data set of the same source.
For the molecule B2, the “IC50, mLTBP1 assay (CAGA12 luciferase)” value was determined as 0.431 nM.
As for B4, the “IC50, mLTBP1 assay (CAGA12 luciferase)” value was determined as 0.423 nM.
B6: the “IC50, mLTBP1 assay (CAGA12 luciferase)” value is 0.479 nM.
The same measure, in the same setting: as for B7, the figure is 0.543 nM.

Another test addresses T6, LTBP-proTGFβ1: transfected human …. As to the kind of experiment: cell-based or functional assay. The source holds these as a separate data set.
Take B2: the “IC50, endogenous hLTBP assay” value was 1.26 nM and 1.56 nM.
Still for that read-out and setting: as for B4, the figure is 0.909 nM; as for B6, 1.01 nM.
Still for that read-out and setting: as for B7, the figure is 1.93 nM.
